Measured values reported in patent US8187838B2, “β-Galactoside-α2, 6-sialyltransferase, a gene encoding thereof, and a method for producing thereof” (Japan Tobacco Inc., priority 2006, dated 2012).
Entries after “also recorded” stand apart in the source; their conditions may differ.

Assays:
[1] = Sialyltransferase activity in homogenate of E. coli carrying the JT-ISH-224 gene clones (14C-NeuAc transfer to lactose); assay type: biochemical; conditions: crude enzyme solution from E. coli TB1
Experimental: (§1) Sialyltransferase activity was measured as described in J. Biochem., 120, 104-110 (1996) (which is hereby incorporated by reference in its entirety). More specifically, the enzymatic reaction was accomplished by using CMP-NeuAc (70 nmol, containing about 20,000 cpm CMP-NeuAc in which NeuAc was labeled with ^14C; NeuAc represents N-acetylneuraminic acid) as a glycosyl donor substrate, lactose (1.25 μmol) as a glycosyl acceptor substrate, NaCl added to give a concentration of 0.5 M, and the enzyme-containing reaction solution (30 μl) prepared as described above. The enzymatic reaction was carried out at 25° C. for about 10 to 180 minutes. After completion of the reaction, 1.97 ml of 5 mM phosphate buffer (pH 6.8) was added to the reaction solution, which was then applied to a Dowex 1×8 (PO4^3− form, 0.2×2 cm, BIO-RAD) column. The radioactivity was measured for the reaction product, i.e., sialyllactose contained in the eluate (0 to 2 ml) from this column to calculate the enzyme activity. One enzyme unit (1 U) is defined as the amount of enzyme required to transfer 1 micromole of sialic acid per minute.
An induction experiment of protein expression was performed on the five clones obtained in (3) above (i.e., ISH224-N0C0/pTrc, ISH224-N1C0/pTrc, ISH224-N2C0/pTrc, ISH224-N3C0/pTrc and ISH224-N3.1C0/pTrc). A single colony of E. coli TB1 having the expression vector pTrc99A carrying each clone was inoculated into LB medium (6 ml) containing an antibiotic, ampicillin (final concentration 100 μg/mL), and pre-cultured at 30° C. to about A600=0.5, followed by addition of IPTG (isopropyl-β-D(−)-thiogalactopyranoside, Wako Pure Chemical Industries, Ltd., Japan) at a final concentration of 1 mM. After culturing with shaking at 30° C. for an additional 4 hours, the cells in 4 ml culture solution were collected by centrifugation. These cells were suspended in 200 μl of 20 mM Bis-Tris buffer (pH 7.0) containing 0.336% Triton® X-100 and 0.5 M sodium chloride, and ultrasonically homogenized under ice cooling. The resulting homogenate was defined as a crude enzyme solution, diluted 200-fold with 20 mM cacodylate buffer (pH 5.0) containing 0.336% Triton® X-100, and then provided for activity measurement. The reaction was carried out in duplicate. The reaction conditions are as indicated in the footnotes of Tables 1-1 and 1-2.
(§2) Reaction Conditions Reaction composition:
Reaction time: 2 minutes Reaction temperature: 30° C.

[2] = Sialyltransferase activity of samples after each purification step; assay type: biochemical; conditions: for Specific activity (U/mg) / Total activity (U): cacodylate pH 5, 5 minutes, 30° C.
Experimental: as §1
(§3) The enzyme activity was measured by the method reported in J. Biochem. 120, 104-110 (1996), in the same manner as described in Example 1 under conditions as indicated in the footnote of Table 3-1. For protein quantification, a Coomassie Protein Assay Reagent (PIERCE) was used according to the instruction manual attached thereto. One enzyme unit (1U) was defined as the amount of enzyme required to transfer 1 micromole of sialic acid per minute.
Reaction time: 5 minutes Reaction temperature: 25° C.
as §3, with “3-2.” for “3-1.”
as §2
Reaction time: 5 minutes Reaction temperature: 30° C.

[3] = after MONO Q (purified fraction)

B1: ISH224-N3C0: truncated protein, SEQ ID NO: 12: methionine plus amino acids 111-514 of SEQ ID NO: 2 (protein, listed as Photobacterium sp.)
chain: MNVVAPSLEVYVDHASLPTLQQLMDIIKSEEENPTAQRYIAWGRIVPTDEQMKELNITSFALINNHTPADLVQEIVKQAQTKHRLNVKLSSNTAHSFDNLVPILKELNSFNNVTVTNIDLYDDGSAEYVNLYNWRDTLNKTDNLKIGKDYLEDVINGINEDTSNTGTSSVYNWQKLYPANYHFLRKDYLTLEPSLHELRDYIGDSLKQMQWDGFKKFNSKQQELFLSIVNFDKQKLQNEYNSSNLPNFVFTGTTVWAGNHEREYYAKQQINVINNAINESSPHYLGNSYDLFFKGHPGGGIINTLIMQNYPSMVDIPSKISFEVLMMTDMLPDAVAGIASSLYFTIPAEKIKFIVFTSTETITDRETALRSPLVQVMIKLGIVKEENVLFWADLPNCETGVCIAV
Q: With B1 as the molecule, how does the “sialyltransferase activity of the expressed clone (in words)” value [1] read?
A: The value was “smallest clone that retained the activity”.

Q: What about the “sialyltransferase activity of the expressed clone (in words)” value ([1]; listed as ISH224-N3C0/pTrc) of the same molecule?
A: The value was “expressed sialyltransferase; also recorded: retained the activity”.

Q: And the “Specific activity (U/mg)” value ([2]; Crude enzyme solution)?
A: The value was 2.0 U/mg.

Q: What about the “Total activity (U)” value ([2]; Crude enzyme solution) of the same molecule?
A: The value was 4911 U.

Q: What about the “Specific activity (U/mg)” value ([2]; after Hydroxyapatite) of the same molecule?
A: Its value is 151 U/mg.

Q: And the “Total activity (U)” value ([2]; after Hydroxyapatite)?
A: Its value is 997 U.

Q: What about the “Specific activity (U/mg)” value [2, 3] of the same molecule?
A: The value was 264 U/mg.

Q: And the “Total activity (U)” value [2, 3]?
A: The value was 808 U.

Q: What about the “Specific activity (U/mg)” value ([2]; after Q SEPHAROSE) of the same molecule?
A: The value was 26.5 U/mg.

Q: What about the “Total activity (U)” value ([2]; after Q SEPHAROSE) of the same molecule?
A: Its value is 3614 U.

Q: What about the “fold higher specific activity than Pasteurella multocida-derived β-galactoside-α2,3-sialyltransferase (60 U/mg)” value ([2]; purified fraction) of the same molecule?
A: Its value is “about 4.4 fold”.

Q: And the “fold higher specific activity than β-galactoside-α2,6-sialyltransferase derived from Photobacterium damselae strain JT0160 (5.5 U/mg)” value ([2]; purified fraction)?
A: The value was “about 48 fold”.
